Results published in patent publication US20180362628A1 (KYMAB, published 2018).
Where two headings read alike, the source gives them in different places. No end group written: not given here. *: point of attachment. Biotin = O=C1N[C@H]2[C@H](CS[C@H]2CCCCC(=O)*)N1

Key:
[1] = biological target: T1, Peptide #3 (Biotin-SGSGHKKLKQPGDGNPDPNANPN) (N-terminal biotin); assay: BLI, biotin-peptide on streptavidin sensor, IgG1 in solution, 25 C
T1 construct: also called Peptide #3 44288
T1 peptide: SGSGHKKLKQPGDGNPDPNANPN

[2] = biological target: T2, Peptide #4 (Biotin-SGSGNPDPNANP); assay: as above
T2 construct: also called Peptide #4 44285
T2 peptide: Biotin-SGSGNPDPNANP

[3] = biological target: T3, Peptide #5 (Biotin-SGSGDGNPDPNANPNV), original sequence of the alanine scan; assay: as above
T3 construct: also called Peptide #5 44289
T3 peptide: Biotin-SGSGDGNPDPNANPNV

[4] = biological target: T4, Peptide #6 (Biotin-SGSGAGNPDPNANPNV); assay: as above
T4 construct: alanine scan variant; also called Peptide #6 44290
T4 peptide: Biotin-SGSGAGNPDPNANPNV

[5] = biological target: T5, Peptide #7 (Biotin-SGSGDANPDPNANPNV); assay: as above
T5 construct: alanine scan variant; also called Peptide #7 44291
T5 peptide: Biotin-SGSGDANPDPNANPNV

[6] = biological target: T6, Peptide #8 (Biotin-SGSGDGAPDPNANPNV); assay: as above
T6 construct: alanine scan variant; also called Peptide #8 44292
T6 peptide: Biotin-SGSGDGAPDPNANPNV

[7] = biological target: T7, Peptide #9 (Biotin-SGSGDGNADPNANPNV); assay: as above
T7 construct: alanine scan variant; also called Peptide #9 44293
T7 peptide: Biotin-SGSGDGNADPNANPNV

[8] = biological target: T8, Peptide #10 (Biotin-SGSGDGNPAPNANPNV); assay: as above
T8 construct: alanine scan variant; also called Peptide #10 44294
T8 peptide: Biotin-SGSGDGNPAPNANPNV

[9] = biological target: T9, Peptide #11 (Biotin-SGSGDGNPDANANPNV); assay: as above
T9 construct: alanine scan variant; also called Peptide #11 44295
T9 peptide: Biotin-SGSGDGNPDANANPNV

[10] = biological target: T10, Peptide #12 (Biotin-SGSGDGNPDPAANPNV); assay: as above
T10 construct: alanine scan variant; also called Peptide #12 44296
T10 peptide: Biotin-SGSGDGNPDPAANPNV

[11] = biological target: T11, Peptide #13 (Biotin-SGSGDGNPDPNKNPNV); assay: as above
T11 construct: scan variant, alanine replaced by lysine; also called Peptide #13 44297
T11 peptide: Biotin-SGSGDGNPDPNKNPNV

[12] = biological target: T12, Peptide #14 (Biotin-SGSGDGNPDPNAAPNV); assay: as above
T12 construct: alanine scan variant; also called Peptide #14 44298
T12 peptide: Biotin-SGSGDGNPDPNAAPNV

[13] = biological target: T13, Peptide #15 (Biotin-SGSGDGNPDPNANANV); assay: as above
T13 construct: alanine scan variant; also called Peptide #15 44299
T13 peptide: Biotin-SGSGDGNPDPNANANV

[14] = biological target: T14, Peptide #16 (Biotin-SGSGDGNPDPNANPAV); assay: as above
T14 construct: alanine scan variant; also called Peptide #16 44300
T14 peptide: Biotin-SGSGDGNPDPNANPAV

[15] = biological target: T15, Peptide #17 (Biotin-SGSGDGNPDPNANPNA); assay: as above
T15 construct: alanine scan variant; also called Peptide #17 44301
T15 peptide: Biotin-SGSGDGNPDPNANPNA

[16] = biological target: T16, Peptide #1 (Biotin-SGSGKPKHKKLKQPGDGNPDPNANP) (N-terminal biotin); assay: as above
T16 construct: also called Peptide #1 44286
T16 peptide: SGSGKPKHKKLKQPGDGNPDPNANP

[17] = biological target: T17, biotinylated rCSP (biotin/rCSP, Example 3) (Plasmodium falciparum strain 3D7, UniProt P02893 19-389, biotinylated (sites not given)); assay: BLI (Octet), biotin-rCSP on streptavidin sensor, antibody in solution
T17 construct: also called biotin/Pf CSP
T17 chain: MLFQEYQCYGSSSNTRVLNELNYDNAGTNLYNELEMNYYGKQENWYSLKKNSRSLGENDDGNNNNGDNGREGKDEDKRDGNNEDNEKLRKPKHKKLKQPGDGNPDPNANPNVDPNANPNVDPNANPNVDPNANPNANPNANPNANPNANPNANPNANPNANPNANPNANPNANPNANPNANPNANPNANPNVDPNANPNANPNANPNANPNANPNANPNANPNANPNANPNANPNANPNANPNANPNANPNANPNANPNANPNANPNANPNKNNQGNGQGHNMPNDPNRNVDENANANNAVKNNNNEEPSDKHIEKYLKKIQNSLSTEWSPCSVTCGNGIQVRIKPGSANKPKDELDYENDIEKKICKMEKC

[18] = biological target: T17, biotinylated rCSP (biotin/rCSP, Example …); assay: as above
[19] = biological target: T18, Recombinant CSP (Wellcome Trust Sanger Institute, FIG. 22), CSP ectodomain with BirA biotinylation tag, … (Plasmodium falciparum strain 3D7, UniProt Q7K740 19-376, biotinylated at the BirA substrate peptide); assay: SPR, IgG1 captured, CSP as analyte, 40 C; apparent affinity (avidity)
T18 construct: extracellular domain; Expressed in HEK293, 45 kDa; order of the tags is that of the legend, not confirmed; also called biotinylated recombinant CSP

[20] = biological target: T1, Peptide #3 …; assay: BLI, biotin-peptide on streptavidin sensor, IgG1 in solution, 25 C
[21] = biological target: T2, Peptide #4 (Biotin-SGSGNPDPNANP); assay: as above
[22] = biological target: T3, Peptide #5 (Biotin-SGSGDGNPDPNANPNV), …; assay: as above
[23] = biological target: T4, Peptide #6 (Biotin-SGSGAGNPDPNANPNV); assay: as above
[24] = biological target: T5, Peptide #7 (Biotin-SGSGDANPDPNANPNV); assay: as above
[25] = biological target: T6, Peptide #8 (Biotin-SGSGDGAPDPNANPNV); assay: as above
[26] = biological target: T7, Peptide #9 (Biotin-SGSGDGNADPNANPNV); assay: as above
[27] = biological target: T8, Peptide #10 (Biotin-SGSGDGNPAPNANPNV); assay: as above
[28] = biological target: T9, Peptide #11 (Biotin-SGSGDGNPDANANPNV); assay: as above
[29] = biological target: T10, Peptide #12 (Biotin-SGSGDGNPDPAANPNV); assay: as above
[30] = biological target: T12, Peptide #14 (Biotin-SGSGDGNPDPNAAPNV); assay: as above
[31] = biological target: T13, Peptide #15 (Biotin-SGSGDGNPDPNANANV); assay: as above
[32] = biological target: T14, Peptide #16 (Biotin-SGSGDGNPDPNANPAV); assay: as above
[33] = biological target: T15, Peptide #17 (Biotin-SGSGDGNPDPNANPNA); assay: as above
[34] = biological target: T16, Peptide #1 …; assay: as above

B1: Antibody 668, human IgG1 (antibody, V domains shown)
VH: QVQLVQSGAEVKKPGASVKVSCKASGFTFTDYAMHWVRQAPGQRLEWMGWINAGNGYTKYSQKFQDRLTITRDTFASTVYMELSSLRSEDTTVYYCARDGFCPSNTCSGYYGMDVWGQGTTVTVSS
VL: QSALTQPASVSGSPGQSITISCTGTSSDVGSYNYVSWYQQHPGKAPKLMIYDVNTRPSGVSIRFSASKSGNTASLTVSGLQAEDEAVYYCSSYAGSSTWVFGGGTKLTVL
notes: human IgG1 with human lambda light chain constant region; HEK293 product; also called AB-000668; Ab668
- Response (nm) [1]: 6.34 nm
- Response (nm) [2]: 4.69 nm
- Response (nm) [3]: 4.71 nm
- Response (nm) [4]: 4.9 nm
- Response (nm) [5]: 4.88 nm
- Response (nm) [6]: 4.86 nm
- Response (nm) [7]: 4.72 nm
- Response (nm) [8]: 5.82 nm
- Response (nm) [9]: 6.01 nm
- Response (nm) [10]: 4.74 nm
- binding result [11]: no binding (tested: LOD 0.170 nm)
- Response (nm) [12]: 0.597 nm
- Response (nm) [13]: 5.69 nm
- Response (nm) [14]: 4.72 nm
- Response (nm) [15]: 4.86 nm
- Response (nm) [16]: 6.47 nm
- Kd [17]: 570 pM
- Kd [18]: 570 pM
- koff [18]: 7.1e-05 s⁻¹
- kon [18]: 125000 M⁻¹ s⁻¹
- Kd [19]: 50 pM
- koff [19]: 2.47e-05 s⁻¹
- kon [19]: 540000 M⁻¹ s⁻¹

B2: Antibody 667, human IgG1 (antibody, V domains shown)
VH: QVQLVQSGAEVKKPGASVKVSCRASGYTFTNYAMHWVRQAPGQRLEWMGWINAGNGYTKYSQKFQDRVTITRDTSATTAYMELSSLRSEDTAMYYCARDSFYDILSGPVYHYYGMDVWGQGTTVTVSS
VL: QSALTQPDSVSGSPGQSITISCTGTSNDVGIYNHVSWYQQHPGKAPKLMIYDVNKRPSGISNRFSGSKSGDTASLTISGLQAEDEADYYCCSYAGSSAWVFGGGTKLTVL
notes: human IgG1 with human lambda light chain constant region; also called AB-000667; Ab667
- Response (nm) [20]: 0.814 nm
- Response (nm) [21]: 0.163 nm
- Response (nm) [22]: 0.635 nm
- Response (nm) [23]: 0.907 nm
- Response (nm) [24]: 0.951 nm
- Response (nm) [25]: 0.692 nm
- Response (nm) [26]: 0.696 nm
- Response (nm) [27]: 3.22 nm
- Response (nm) [28]: 0.0953 nm
- Response (nm) [29]: 0.0529 nm
- Response (nm) [30]: -0.0141 nm
- Response (nm) [31]: 0.213 nm
- Response (nm) [32]: 0.651 nm
- Response (nm) [33]: 1.09 nm
- Response (nm) [34]: 0.645 nm
- Kd [17]: 340 pM
- Kd [18]: 341 pM
- koff [18]: 5.67e-05 s⁻¹
- kon [18]: 166000 M⁻¹ s⁻¹
- Kd [19]: 310 pM
- koff [19]: 6.46e-05 s⁻¹
- kon [19]: 215000 M⁻¹ s⁻¹
